# Results from the supplement of paper PMC7877785.
# ± gives the uncertainty stated by the source.
# Experiment: self-splicing fitness, log relative to wild type (ln ratio); higher = more splicing; Tetrahymena group I intron in knt gene, E. coli kanamycin selection, DiMSum; sequences stand for … in CUCUCU…GGAGGGAAAAGUUAUCAGGCAUGCACCUGGUAGCUAGUCUUUAAACCAAUAGAUUGCAUCGGUUUAAAAGGCAAGACCGUCAAAUUGCGGGAAAGGGGUCAACAGCCGUUCAGUACCAAGUCUCAGGGGAAACUUUGAGAUGGCCUUGCAAAGGGUAUGGUAAUAAGCUGACGGACAUGGUCCUAACCACGCAGCCAAGUCCUAAGUCAACAGAUCUUCUGUUGAUAUGGAUGCAGUUCACAGACUAAAUGUCGGUCGGGGAAGAUGUAUUCUUCUCAUAAGAUAUAGUCGGACCUCUCCUUAAUGGGAGCUAGCGGAUGAAGUGAUGCAACACUGGAGCCGCUGGGAACUAAUUUGUAUGCGAAAGUAUAUUGAUUAGUUUUGGAGUACUCGUGGUCG
# In short: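 A randomised library covering all eight P1ex-region intron nucleotides was built with the intron in the knt kanamycin-resistance gene on pET-22b(+) and held in E. coli BL21(DE3). Cells were grown overnight at 37°C or 30°C on LB agar, with or without 25 μg/mL kanamycin, plus 100 μg/mL carbenicillin, 50 μM IPTG and 0.2% rhamnose, and pooled colonies were amplicon-sequenced on an Illumina HiSeq 2500. DiMSum fitness is the error-weighted combination of wild-type-normalised replicate fold changes, kanamycin versus none.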
Sequence,self-splicing fitness (ln) (30 °C),self-splicing fitness (ln) (37 °C)
GGCCAGCAAUAUUACGUCCG,-3.34 ± 0.21,-0.963 ± 0.14
GGCCAGCAAUAUUACGUCUA,-2.43 ± 0.084,-1.29 ± 0.078
GGCCAGCAAUAUUACGUCUU,-0.247 ± 0.081,-0.523 ± 0.082
GGCCAGCAAUAUUACGUGGG,-4.31 ± 0.21,-3.32 ± 0.26
GGCCAGCAAUAUUACGUUGG,-3.91 ± 0.25,-3.17 ± 0.25
GGCCAGCAAUAUUACGUUUA,-2.69 ± 0.19,-1.87 ± 0.16
GGCGAGCAAUAUUACGAAUC,-1.03 ± 0.051,-0.145 ± 0.067
GGCGAGCAAUAUUACGAUAC,-2.02 ± 0.37,-0.796 ± 0.35
GGCGAGCAAUAUUACGAUCC,-0.772 ± 0.092,-0.128 ± 0.12
GGCGAGCAAUAUUACGAUGA,-2.08 ± 0.17,-2.93 ± 0.33
GGCGAGCAAUAUUACGCACA,-0.586 ± 0.082,-0.225 ± 0.12
GGCGAGCAAUAUUACGCAUC,-2.15 ± 0.15,-1.05 ± 0.14
GGCGAGCAAUAUUACGCAUU,-1.13 ± 0.11,-0.998 ± 0.14
GGCGAGCAAUAUUACGCCGG,-3.4 ± 0.35,-0.739 ± 0.33
GGCGAGCAAUAUUACGCCUG,-1.97 ± 0.43,
GGCGAGCAAUAUUACGCGUA,-1.09 ± 0.17,-0.484 ± 0.15
GGCGAGCAAUAUUACGGAUA,,-2.08 ± 0.37
GGCGAGCAAUAUUACGGCAC,-1.36 ± 0.13,-0.093 ± 0.14
GGCGAGCAAUAUUACGGCGC,-2.51 ± 0.29,-2.52 ± 0.37
GGCGAGCAAUAUUACGGGAG,-3.99 ± 0.34,-1.33 ± 0.23
GGCGAGCAAUAUUACGGGCA,-0.695 ± 0.15,-0.194 ± 0.15
GGCGAGCAAUAUUACGGGUG,-2.31 ± 0.12,-1.96 ± 0.14

Sequence,self-splicing fitness (ln) (30 °C),self-splicing fitness (ln) (37 °C)
GGCGAGCAAUAUUACGGUGU,-2.02 ± 0.25,-1.55 ± 0.17
GGCGAGCAAUAUUACGUCGG,-3.78 ± 0.33,-2.13 ± 0.28
GGCGAGCAAUAUUACGUGCU,-3.19 ± 0.34,
GGCGAGCAAUAUUACGUGUU,-2.5 ± 0.12,-1.39 ± 0.14
GGCUAGCAAUAUUACGAACG,-0.636 ± 0.066,-0.168 ± 0.094
GGCUAGCAAUAUUACGAAGU,-2.13 ± 0.26,-1.56 ± 0.44
GGCUAGCAAUAUUACGAAUC,0.199 ± 0.18,0.239 ± 0.19
GGCUAGCAAUAUUACGACAA,-0.713 ± 0.29,-0.198 ± 0.33
GGCUAGCAAUAUUACGACGA,-1.31 ± 0.15,-1.08 ± 0.17
GGCUAGCAAUAUUACGACUA,-0.758 ± 0.091,-0.454 ± 0.089
GGCUAGCAAUAUUACGACUU,-0.0915 ± 0.084,-0.0421 ± 0.11
GGCUAGCAAUAUUACGAGCU,-2.9 ± 0.47,-1.65 ± 0.31
GGCUAGCAAUAUUACGAGUU,-1.95 ± 0.11,-0.414 ± 0.11
GGCUAGCAAUAUUACGAUAC,-1.71 ± 0.16,-0.0528 ± 0.14
GGCUAGCAAUAUUACGCAAC,-1.61 ± 0.11,-0.72 ± 0.12
GGCUAGCAAUAUUACGCACA,-0.263 ± 0.12,0.1 ± 0.16
GGCUAGCAAUAUUACGCCGG,-2.34 ± 0.21,-2.27 ± 0.35
GGCUAGCAAUAUUACGCGUC,-2.06 ± 0.24,0.0137 ± 0.14
GGCUAGCAAUAUUACGCUAG,-2.5 ± 0.3,-1.45 ± 0.34
GGCUAGCAAUAUUACGGACG,0.655 ± 0.093,0.211 ± 0.11
GGCUAGCAAUAUUACGGGUC,-2.91 ± 0.28,-2.26 ± 0.24
